We go through 17 molecules from patent US12365732 (23ANDME, dated 2025).

Substitutions are numbered along the chain they refer to. In names and notes the source's numbering stands.

B1: mAb1.v7.NGS1 Fab (Fab, V domains shown)
VH: EVQLVQSGAEVKKPGASVKVSCKASGFTFTNNFMHWVRQAPGQGLEWIGMIHPNSGITNINEKFKNRVTMTTDTSTSTAYMELRSLRSEDTAVYYCRSDGTYEGYFDYWGQGTLVTVSS
VL: DIQLTQSPSSLSASVGDRVTITCKASQNVGTAIVWYQQKPGKAPKVLIYSASTRYTGVPSRFSGSGSGTDFTLTISSLQPEDFATYYCQQYSSSPLTFGQGTKVEIK
notes: also called W33F
B2: mAb1.v7.NGS4 Fab (Fab, V domains shown)
VH: B1 VH with F33W, E62H
VL: B1 VL
notes: also called E61H
B3: mAb1.v7.NGS2 Fab (Fab, V domains shown)
VH: B1 VH with F33W, M50F
VL: B1 VL
notes: also called M50F
B4: mAb1.v7.NGS6 Fab (Fab, V domains shown)
VH: B1 VH with F33W, T101I
VL: B1 VL
notes: Fab with 8xHis tag; also called T97I
B5: mAb1.v7.NGS3 Fab (Fab, V domains shown)
VH: B1 VH with F33W, P53A
VL: B1 VL
notes: also called P52aA
B6: mAb1.v7.NGS5 Fab (Fab, V domains shown)
VH: B1 VH with F33W, E62R
VL: B1 VL
notes: also called E61R
B7: mAb1.v7.6 Fab (Fab, V domains shown)
VH: B1 VH with N32R, F33W, P53V, T101L
VL: B1 VL
notes: also called N32R/P52aV/T97L
B8: mAb1.v7.10 Fab (Fab, V domains shown)
VH: B1 VH with F33W, M34R, N54L, T101V
VL: B1 VL
notes: also called M34R/N53L/T97V
B9: mAb1.v7.11 Fab (Fab, V domains shown)
VH: B1 VH with I57G, G100E
VL: B1 VL
notes: Fab with 8xHis tag
B10: mAb1.v7.19 Fab (Fab, V domains shown)
VH: B1 VH with N32S, F33W, I60R, T101I
VL: B1 VL
notes: also called N32S/I59R/T97I
B11: mAb1.v7.8 Fab (Fab, V domains shown)
VH: B1 VH with F33W, M34D, N54L, T101V
VL: B1 VL
notes: also called M34D/N53L/T97V
B12: mAb1.v7.14 Fab (Fab, V domains shown)
VH: B1 VH with T30V, F33W, I60T, T101I
VL: B1 VL
notes: also called T30V/I59T/T97I
B13: mAb1.v7.50 Fab (Fab, V domains shown)
VH: B1 VH with F33W, M34S, P53R, T101V
VL: B1 VL
notes: also called M34S/P52aR/T97V
B14: mAb1.v7.24 Fab (Fab, V domains shown)
VH: B1 VH with F33W, M34G, P53R, T101I
VL: B1 VL
notes: also called M34G/P52aR/T97
B15: mAb1.v7.15 Fab (Fab, V domains shown)
VH: B1 VH with F33W, M34D, N54M, T101F
VL: B1 VL
notes: also called M34D/N53M/T97F
B16: mAb1.v7.21 Fab (Fab, V domains shown)
VH: B1 VH with N32Y, F33W, I60M, T101V
VL: B1 VL
notes: also called N32Y/I59M/T97V
B17: mAb1.v7.59 Fab (Fab, V domains shown)
VH: B1 VH with F33W, M34N, N59A, S98L
VL: B1 VL
notes: also called M34N//N58A/S94L

In one test the target is T1, cy-CD96 (soluble, extracellular domain) (cynomolgus monkey, UniProt P40200 22-516 (human entry), biotinylated in Octet and blocking ELISA).
T1 construct: the assays name only cy-CD96; also called biotinylated cy-CD96
T1 chain: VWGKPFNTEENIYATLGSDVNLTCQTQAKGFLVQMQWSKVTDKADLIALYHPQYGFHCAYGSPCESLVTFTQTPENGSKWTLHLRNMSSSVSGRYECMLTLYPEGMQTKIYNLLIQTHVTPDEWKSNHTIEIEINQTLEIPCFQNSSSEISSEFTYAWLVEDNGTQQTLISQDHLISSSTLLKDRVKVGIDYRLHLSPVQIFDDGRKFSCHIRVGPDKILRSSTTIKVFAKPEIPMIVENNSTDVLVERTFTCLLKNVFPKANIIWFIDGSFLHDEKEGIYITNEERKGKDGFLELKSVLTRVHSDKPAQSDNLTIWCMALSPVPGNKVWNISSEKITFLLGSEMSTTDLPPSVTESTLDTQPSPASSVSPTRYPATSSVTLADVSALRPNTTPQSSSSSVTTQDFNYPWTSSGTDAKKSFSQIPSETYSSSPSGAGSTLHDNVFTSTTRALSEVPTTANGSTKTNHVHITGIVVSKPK
The test is described as follows: BLI (Octet), biotin-CD96 on SA, Fab analyte. For orientation: Biolayer interferometry detects binding as a change in optical thickness at a sensor tip.
As usually defined, the Kd is the equilibrium constant for the complex coming apart. Lower therefore signals tighter binding. As for B1, the dissociation constant (Kd) was found to be 271 nM.
Same read-out and setting: the value for B2 was 739 nM; that for B3 was around 100 nM; that for B4 was 289 nM.
In the case of B5, the dissociation constant (Kd) was around 1000 nM.
In turn, B6 gave a Kd of 85 nM.

A further test has as its target T2, hu-CD96 (soluble, isoform 2 extracellular domain) (human, UniProt P40200 22-516, biotinylated in Octet and blocking ELISA).
T2 construct: the assays name only hu-CD96; also called hCD96; biotinylated hu-CD96
T2 sequence: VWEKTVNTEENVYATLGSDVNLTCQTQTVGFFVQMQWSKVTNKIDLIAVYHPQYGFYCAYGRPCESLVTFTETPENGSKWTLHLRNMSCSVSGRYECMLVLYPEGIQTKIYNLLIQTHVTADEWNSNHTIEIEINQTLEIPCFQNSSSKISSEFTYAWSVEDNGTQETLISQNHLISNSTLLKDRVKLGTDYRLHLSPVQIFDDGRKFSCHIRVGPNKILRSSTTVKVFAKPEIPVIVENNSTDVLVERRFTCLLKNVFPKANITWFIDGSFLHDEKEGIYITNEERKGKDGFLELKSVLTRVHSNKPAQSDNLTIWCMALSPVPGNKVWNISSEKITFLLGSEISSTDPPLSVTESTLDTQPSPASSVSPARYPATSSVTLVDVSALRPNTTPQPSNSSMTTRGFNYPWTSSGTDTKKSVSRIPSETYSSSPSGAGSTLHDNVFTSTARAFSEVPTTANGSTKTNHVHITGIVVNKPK
Briefly: BLI (Octet), biotin-CD96 on SA, Fab analyte.
Take B1: the equilibrium dissociation constant (Kd) came out at 49 nM.
As for B2, the dissociation constant Kd is 31.5 nM.
Molecule B3 had a Kd of 63 nM.
Regarding B4, the dissociation constant Kd stood at 5.32 nM.
The same measure, in the same setting: the figure for B5 is 0.1 nM.
The molecule B6 displayed a dissociation constant (Kd) of 43.6 nM.

Another test deals with T1, cy-CD96 (soluble, extracellular domain). The test is described as follows: BLI (Octet), biotin-CD96 on SA, Fab analyte. The source holds these as a separate data set. As for the experimental part: (§1) The binding affinity of the generated Fab variants of mAb1.v7 for hu-CD96 and cy-CD96 was determined by OCTET (Pall ForteBio) Bio-Layer Interferometry (BLI) binding analysis. The biotinylated hu-CD96 or biotinylated cy-CD96 was diluted to a final concentration 10 µg/mL in experimental buffer (PBS buffer with 0.01% Tween-20) and immobilized on the Streptavidin Capture (SA) biosensors (Pall ForteBio). Three-fold serial dilutions of the mAb1.v7 Fab variants starting at 1 µM as analytes were diluted in the experimental buffer (PBS buffer with 0.01% Tween-20). The biosensors were equilibrated in experimental buffer at 30° C. for ten minutes prior to starting the experiment. The kinetics experiment was performed with the following steps, where the step name, solution and time are listed: Baseline (buffer—60 seconds), Loading (biotinylated antigen—200 seconds), Baseline 2 (buffer—minimum 120 seconds), Association (analyte—200-300 seconds) and Dissociation (buffer—1000 seconds). The resulting BLI signal from analyte association and dissociation from the […] was analyzed using the Octet Data Analysis software (Pall ForteBio). First a reference subtraction was performed on all recorded traces using the reference well (biosensor that underwent same steps as experimental wells but no analyte for the Association step) and then all the traces were aligned to the beginning of the Association step. The entirety of the Association and Dissociation steps were used in a Global fit (minimum of four analyte concentration traces) in a 1:1 binding model to calculate the K_D values for the 16 selected individual mAb1.v7 Fab variants as summarized in Table 9 (below).
Regarding B7, the Kd was determined as 284 nM.
On the same count and under the same terms, the value for B8 was 117 nM.
Same read-out and setting: the value for B9 was 175 nM.
On the same count and under the same terms, the value for B10 was 261 nM; that for B11 was 104 nM.
B12 gave a dissociation constant Kd of 530 nM.
In turn, B13 had a Kd of 183 nM.
Same read-out and setting: the figure for B14 is 118 nM; for B15 it is 160 nM; for B16 it is 118 nM.
B17 returned a Kd of 271 nM.

The target in the next test is T2, hu-CD96 (soluble, isoform 2 …). Briefly: BLI (Octet), biotin-CD96 on SA, Fab analyte. The source holds these as a separate data set. As for the experimental part: as §1
The molecule B7 yielded a Kd of 28.4 nM.
The same measure, in the same setting: the figure for B8 is 2.71 nM; for B9 it is 156 nM.
For the molecule B10, the affinity, expressed as Kd, was 0.63 nM.
Still for that read-out and setting: the figure for B11 is 27 nM.
In turn, B12 came in with a Kd of around 0.1 nM.
On the same count and under the same terms, the value for B13 was 4.16 nM; that for B14 was 0.31 nM.
The same measure, in the same setting: the value for B15 was 3 nM; that for B16 was 0.31 nM; that for B17 was around 0.1 nM.

The target of a further test is T1, cy-CD96 (soluble, extracellular domain). Briefly: phage competition ELISA, soluble CD96 vs coated hu-CD96. As for the experimental part:
(§2) 192 colonies from most stringent selections (biotinylated 0.1 nM of hu-CD96 or cy-CD96 with 1000× non-biotinylated human or cy-CD96) were grown in 400 µL 2YT with 4 µL helper phage M13KO7 overnight at 37° C. with shaking. After spinning down the pellet, the phage supernatant was diluted 1:1 with 2 nM hu-CD96, 20 nM cy-CD96 and ELISA buffer (0.5% BSA and 0.05% TWEEN®20 in PBS) in total […] and incubated for two hours at room temperature with agitation. The […] of mixture was transferred to hu-CD96 coated plate for 15 min to capture unbound phage. The plate was washed with wash buffer (0.05% TWEEN®20 in PBS), and HRP-conjugated anti-M13 antibody (Sino biological, Cat #11973-MM05-H-50) was added in ELISA buffer for 30 min. […] Enzymatic color development was stopped using TMB stop solution (VWR, Cat #95059-200). Plates were analyzed with a SpectraMax i3X plate reader (Molecular Devices). The % inhibition was calculated by the $OD450$ of wells with hu-CD96/cy-CD96 competitor divided by $OD450$ of wells with buffer alone. The lower % inhibition indicated higher phage $IC50$ against hu-CD96 or cy-CD96.
(§3) Selected top inhibition % phage variants from single spot competition were purified from culture supernatants. The optimal phage concentration was incubated with serially-diluted hu-CD96 or cy-CD96 in ELISA buffer in NUNC F plate for two hours. The […] of the mixture was transferred to hu-CD96 coated wells for 15 min to capture unbound phage. The plate was washed with wash buffer (0.05% TWEEN®20 in PBS), and HRP-conjugated anti-M13 antibody (Sino biological, Cat #11973-MM05-H-50) was added in ELISA buffer for 30 min. The plates were washed and developed as described above. The absorbance at 450 nm was plotted as a function of antigen concentration in solution to determine phage $IC50$.
One may read the IC50 as the midpoint of a concentration-inhibition curve. A lower IC50 goes with higher potency. B7 yielded an IC50 of 0.15 nM.
B8 registered an IC50 of 0.76 nM.
In turn, B9 came in with an IC50 of 0.24 nM.
Same read-out and setting: the figure for B10 is 0.84 nM.
On to B11, for which the 50% inhibitory concentration (IC50) stood at 0.45 nM.
On the same count and under the same terms, the figure for B12 is 1 nM; for B13 it is 0.9 nM.
B14 registered an IC50 of 0.6 nM.
Still for that read-out and setting: the value for B15 was 1.85 nM; that for B16 was 0.91 nM; that for B17 was 1.6 nM.

A further test has as its target T2, hu-CD96 (soluble, isoform 2 …). The test is described as above. As for the experimental part: as §2, §3
On to B7, for which the IC50 is 0.16 nM.
B8: the 50% inhibitory concentration (IC50) turned out to be 0.19 nM.
Same read-out and setting: the value for B9 was 0.23 nM; that for B10 was 0.23 nM; that for B11 was 0.17 nM.
For B12, the IC50 worked out at 0.1 nM.
Molecule B13 returned a half-maximal inhibitory concentration (IC50) of 0.1 nM.
B14: the IC50 stood at 0.2 nM.
Molecule B15 showed an IC50 of 0.19 nM.
Turning to B16, the half-inhibitory concentration (IC50) came to 0.15 nM.
Still for that read-out and setting: the value for B17 was 0.1 nM.
